Test results taken from patent US20180021429A1, “ANTICANCER AGENTS OR ANTIMETASTATIC AGENTS USING FSTL1 AND COMBINATION DRUG THEREOF” (PHARMA FOODS INTERNATIONAL CO., LTD., priority 2015, published 2018).
Entries after “also recorded” stand apart in the source; their conditions may differ.

What was measured:
[1] = test system: GFP+F10-snail+ tumor cells; assay: In vivo drug efficacy of each anti-FSTL1 antibody clone, GFP+F10-snail+ tumor model (Example 32); set-up: species or system mouse; details: intraperitoneal 10 mg/kg on days 4 and 7; for mouse survival period (life-prolonging effect): FIG. 121
Description: (§1) • Day 0: transplantation of GFP+F10-snail+ tumor cells (3×10^5 cells subcutaneously & 2×10^4 cells intravenously) • Day 4: intraperitoneal administration of the antibody (first dose, 10 mg/kg) • Day 7: intraperitoneal administration of the antibody (second dose, 10 mg/kg)
(§2) Subcutaneous tumor was measured 4, 7, 10, 14, 17, 20, and 23 days after tumor cell transplantation.

[2] = test system: C57/BL/6 mouse-derived bone marrow cells; assay: MSC induction inhibition test using mouse bone marrow cells stimulated with FSTL1 (Example 27); type: cell-based; details: FSTL1 20 ng/mL, antibody 10 μg/mL, 8 days; flow cytometry; FIG. 115A
Description: (§3) In this Example, the inhibitory activity of the anti-FSTL1 antibody was confirmed in an experimental system of mesenchymal stem cell induction while a FSTL1 inhibitory effect on MSC expansion induced not only by FSTL1 but by Snail+ tumor cells was also evaluated. For specific operation, each antibody (10 μg/mL) was added to systems in which C57/BL/6 mouse-derived bone marrow cells were stimulated with FSTL1 (20 ng/mL) or a culture supernatant of tumor cells. After culture for 8 days under stimulation, cell fraction CD45(−) cells (MSCs) containing MSCs at a high rate and CD45(−)CD146(+)ALCAM(+) cells (sMSCs) increasing in number in association with cancer metastasis were analyzed by flow cytometry in the same way as in Example 14, and the number of cells per culture system was counted. In this Example, mouse immunoglobulin manufactured by BioLegend, Inc. (#401408, Cone MG1-45) was used as a control antibody.

[3] = test system: C57/BL/6 mouse-derived bone marrow cells; assay: MSC induction inhibition test using mouse bone marrow cells, FSTL1 stimulation (Example 27); type: cell-based; details: FSTL1 20 ng/mL; antibody 10 μg/mL; 8 days; FIG. 21A
Description: as §3

[4] = test system: GFP+F10-snail+ tumor cells; assay: In vivo drug efficacy of each anti-FSTL1 antibody clone, GFP+F10-snail+ tumor model (Example 32); set-up: species or system mouse; details: intraperitoneal 10 mg/kg on days 4 and 7; vs control antibody
Description: as §1, §2
Experiment Group (n=5) Control IgG (anti-DNP mAb) • #6-55 • #7 • #10 • #13 • #33
• Day 0: transplantation of GFP+F10-snail+ tumor cells (3×10^5, cells subcutaneously & 2×10^4 cells intravenously) • Day 4: intraperitoneal administration of the antibody (first dose, 10 mg/kg) • Day 7: intraperitoneal administration of the antibody (second dose, 10 mg/kg)

[5] = biological target: T1, FSTL1 (Homo sapiens, UniProt Q12841); assay: MSC induction inhibition test using mouse bone marrow cells stimulated with FSTL1 (Example 27); type: cell-based; set-up: purchased R&D Systems, Inc. 1694-FN-050; details: FSTL1 20 ng/mL, antibody 10 μg/mL, 8 days
T1 sequence (Q12841 21-308): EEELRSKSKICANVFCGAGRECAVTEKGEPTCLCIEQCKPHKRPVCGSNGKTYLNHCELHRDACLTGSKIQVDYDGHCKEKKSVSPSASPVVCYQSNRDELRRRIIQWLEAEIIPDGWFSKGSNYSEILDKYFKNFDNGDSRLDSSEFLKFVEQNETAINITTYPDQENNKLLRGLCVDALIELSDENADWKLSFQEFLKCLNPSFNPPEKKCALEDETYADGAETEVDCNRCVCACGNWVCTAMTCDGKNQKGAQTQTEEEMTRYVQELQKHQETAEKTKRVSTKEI
Description: as §3, with “([…],” for “(#401408,”
as §3

[6] = biological target: T2, human FSTL1 (Homo sapiens, UniProt Q12841); assay: ELISA binding activity of purified antibody against human FSTL1 (Example 2); details: FIG. 1B/31B
T2 construct: AAA linker + 10xHis (C); made in house; host or cells: Expi293 (transient expression; purified from culture supernatant on HisPur Cobalt Resin)
T2 sequence (Q12841 with tags, fused parts or gaps): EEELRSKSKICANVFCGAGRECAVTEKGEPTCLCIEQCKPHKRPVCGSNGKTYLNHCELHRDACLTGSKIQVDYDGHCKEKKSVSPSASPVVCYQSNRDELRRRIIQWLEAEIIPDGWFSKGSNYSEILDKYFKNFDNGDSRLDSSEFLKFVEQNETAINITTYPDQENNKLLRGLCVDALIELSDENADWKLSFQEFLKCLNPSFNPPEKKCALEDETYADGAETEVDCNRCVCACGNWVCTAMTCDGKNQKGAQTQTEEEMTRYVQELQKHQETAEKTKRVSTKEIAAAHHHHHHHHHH
Description: (§4) The reactivity of the obtained antibody clones described above with FSTL1 was evaluated by ELISA under the following conditions.
(Table 2 ELISA conditions for binding activity evaluation of purified antibody) Antibodies used: anti-dinitrophenyl (DNP) antibody (negative control), #5-2, #5-3, #5-8, #5-10, #5-43, #6-55, and #7-34
FIGS. 2 and 3 show results of evaluating binding activity under the condition of Table 3 as to clones differing in screening and antibody purification timings.
(§5) Antibodies used: anti-dinitrophenyl (DNP) antibody (negative control), #5-2, #5-3, #5-8, #5-10, #5-43, #6-55, and #7-34
FIGS. 32 and 33 show results of evaluating binding activity under the condition of Table 3 as to clones differing in screening and antibody purification timings.

[7] = biological target: T1, FSTL1; assay: Inhibition of activation of tumor cells by FSTL1, RANKL- and CCR2-positive cells in human pancreatic cancer cell line Panc1 (Examples 5, 7, 9, 10, 11); type: cell-based; set-up: purchased R&D Systems, Inc. 1694-FN-050; details: Example 9; FSTL1 20 ng/mL, antibody 10 μg/mL, 3 days
[8] = biological target: T2, human FSTL1; assay: ELISA, binding activity of purified antibody against human FSTL1 (Example 2); details: cross reactivity test; antibody diluted from 1000 ng/ml
Description: as §4, §5
FIGS. 64 and 65 show results of evaluating binding activity under the condition of Table 3 as to clones differing in screening and antibody purification timings.

Row | Molecule | mouse survival period (life-prolonging effect) [1] | MSC induction inhibitory effect [2] | MSC induction inhibitory activity (CD45(−) MSCs, CD45(−)CD146(+)ALCAM(+) sMSCs) [3] | mouse survival period (life-prolonging effect) [4] | inhibitory effect in the MSC induction inhibition test (CD45(−) MSCs and sMSCs, flow cytometry) [5] | binding activity against human FSTL1 [6] | inhibitory activity against the expansion of RANKL-positive cells and CCR2-positive cells [7] | binding activity against human FSTL1 [8] | other results
1 | #33: chicken-mouse chimeric anti-FSTL1 antibody clone; variable regions SEQ ID NO: 823 (light), 825 (heavy) (antibody, V domains shown, mouse constant regions) VH: AVTLDESGGGLQTPGGGLSLVCKASGFTFSSFNMNWVRQAPGKGLEYVAEISGTGSSTYYGSAVKGRATISRDNGQSTVRLQLNNLRAEDTATYFCARGDGAYSIDAWGHGTEVIVSS VL: ASTQPSSVSANPGETVEITCSGDSSYYGWFQQKSPGSAPVTVIYDNTNRPSDIPSRFSGSKSGSTATLTITGVRAEDEAVYYCGGYDSSTYDGIFGAGTTLTVL | therapeutic effects equal to or higher than those of #6-55 | strong inhibitory effect equivalent to or higher than that of #6-55 | strong inhibitory effect equivalent to or higher than that of #6-55; also recorded: high MSC induction inhibitory activity equivalent to or higher than that of #6-55 | therapeutic effects equal to or higher than those of #6-55 | strong inhibitory effect equivalent to or higher than that of #6-55 |  |  |  | MSC induction inhibitory activity, reproducibility confirmed [5]: high MSC induction inhibitory activity equivalent to or higher than that of #6-55
2 | #6-55: chicken-mouse chimeric anti-FSTL1 antibody clone; variable regions SEQ ID NO: 783 (light), 785 (heavy) (antibody, V domains shown, mouse constant regions) VH: AVTLDESGGGLQTPGGALSLVCKGSGFTFTSVTMQWVRQAPGKGLEWVASVCSGSSTYYAPAVKGRATISRDNGQSTVRLQLSNLRPEDTGTYYCAKIAGRARWSCTSAAYNIDAWGHGTEVIVSS VL: ASTQPSSVSAIPGETVKITCSGGGNNYGWYQQRSPGSAPVTVIYYNDNRPSNIPSRFSGSTSGSTSTLTITGVQADDEAIYYCGSWDSNTDSGIFGAGTTLTVL | statistically significant life-prolonging effect |  |  | statistically significant life-prolonging effect |  | specific and equivalently strong binding activity | higher inhibitory activity; also recorded: exhibited inhibitory activity | specific and equivalently strong binding activity | suppressive activity against subcutaneous tumor growth ([1]; vs control antibody group, FIG. 120): statistically significant suppressive activity; suppressive activity against subcutaneous tumor growth [4]: statistically significant suppressive activity
3 | #7-34: chicken-mouse chimeric anti-FSTL1 antibody clone; variable regions SEQ ID NO: 787 (light), 789 (heavy) (antibody, V domains shown, mouse constant regions) VH: AVTLDESGGGLQTPGGGLSLVCKASGFTFSSVTMQWVRQAPGKGLEWVASICSGSSTYYGPAVKGRATISRDNGQNTVRLQLNNLRAEDTATYYCAKIVGRGRWSCTSAAYNIDAWGHGTEVIVSS VL: ASTQPSSVSANPGETVKITCSGGGNNYGWYQQKSPGSAPVTVIYYNNNRPSNIPSRFSGSTSGSTSTLTITGVQAEDEAVYYCGSYEGSTDSGIFGAGTTLTVL |  |  |  |  |  | specific and equivalently strong binding activity |  | specific and equivalently strong binding activity | 
4 | #13: chicken-mouse chimeric anti-FSTL1 antibody clone; variable regions SEQ ID NO: 815 (light), 817 (heavy) (antibody, V domains shown, mouse constant regions) VH: AVTLDESGGGLQTPGGGLSLVCKASGFTFSSVTMQWVRQAPGKGLEWVASICSGSSTYYGPAVKGRATISRDNGQNTVRLQLNNLRAEDTATYYCAKIVGRGRWSCTSAAYNIDAWGHGTEVIVSS VL: ASTQPSSVSANPGETVKITCSGGGNNYGWYQQKSPGSAPVTVIYNNNNRPSNIPSRFSGSKSGSTNTLTITGVQAEDEAVYYCGSYDSSSDSGIFGAGTTLTVL |  | strong inhibitory effect equivalent to or higher than that of #6-55 | strong inhibitory effect equivalent to or higher than that of #6-55 |  | strong inhibitory effect equivalent to or higher than that of #6-55 |  |  |  | 
5 | #5-8: chicken-mouse chimeric anti-FSTL1 antibody clone; variable regions SEQ ID NO: 771 (light), 773 (heavy) (antibody, V domains shown, mouse constant regions) VH: AVTLDESGGGLQTPGGGLSLVCKGSGFTFSSFNMFWVRQAPGKGLEWVAGIGKDGVPKYGTAVDGRATISKDNGQSTMRLQLNNLRAEDTGTYFCAKAAGGCSYDWCGIYTGDIDTWGHGTEVIVSS VL: ASTQPSSVSANPGEAVKITCSGGSGSYYGWYQQKSPGSAPVTVIYNNNQRPSDIPSRFSGSKSGSTATLTITGVQAEDEAVYFCGGYDSSTGHGGIFGAGTTLTVL |  |  |  |  |  |  | higher inhibitory activity; also recorded: exhibited inhibitory activity |  | 
